{"source": "patent US20110212106A1", "about": "“HIV-1 NE[…] USES THEREOF” (priority 2010, published 2011)", "molecules": {"B1": {"name": "HGN194: human mAb binding the V3 crown of gp120; VH SEQ ID NO: 45, VL SEQ ID NO: 46 (antibody, listed as Homo sapiens, V domains shown)", "VH": "EVQLVQSGAEVKKPGESLKISCYGSGYNFNDYWIGWVRQMPGKGLEWMGMIYPDDSDTKYSAAFEGQVTLSADKSISTAYLQWTSLRASDTATYYCARLDGDYADFDSWGQGTLVTVSS", "VL": "QSVLTQPPSVSAAPGQKVTISCSGTNSNLGDKFVSWYQQLPGTAPRLLIYDNDKRPSGIPDRFSGSKSGASATLAITGLQTGDEADYYCGTWDNSLSALFGGGTKLTVL"}}, "key": {"[1]": {"test_system": "HIV-1 pseudoviruses in TZM-bl cells"}, "gp120 binding to sCD4": {"test_system": "gp120 binding to sCD4", "conditions": "inhibition of sCD4 binding", "method": "Shown is mean±SD of triplicates.\nThe ability of mAbs to inhibit binding of sCD4 to gp120 or gp140 was evaluated by ELISA. Serial dilutions of mAbs were pre-incubated with gp120 (or gp140) and added to plates pre-coated with sCD4. After 1 h plates were washed and incubated with sheep polyclonal antibody D7324 (Aalto Bio-Reagents) followed by washing, incubation with AP-conjugated rabbit anti-sheep IgG antibody (Abcam, Cambridge, UK), extensive washing and detection using p-NPP (Sigma) as substrate."}, "[2]": {"experiment": "In vivo administration in macaques", "from_the_text": "Specificity: V3 loop. Pepscan analysis identified the epitope which is very conserved in the tip of V3 of gp120. It includes 4 residues involved in co-receptor (CCR5 or CXCR4) binding. Also HGN194 has accessibility problems (Fab fragment and single chain antibody may work better). Neutralizes most Tier 1 isolates (they are more sensitive isolates since the epitope is more accessible)."}, "[3]": {"test_system": "HIV-1 pseudoviruses in HOS-CD4-CCR5 cells", "experimental": "To measure the neutralization activity of the isolated mAbs, luciferase-encoding virions pseudotyped with the desired HIV-1 Env proteins were used in a single-cycle infectivity assay, as previously described (Gorny M K, et al. (2002) J Virol 76: 9035-9045). Briefly, appropriate dilutions of the virion-containing culture supernatants were pre-incubated at 37° C. for 1 h with mAbs at various concentrations. The virus-mAb mixtures were added to HOS-CD4-CCR5 cells and incubated for 3 days at 37° C. A similar protocol was used for supernatants screening using TZM-bl cells (Li M, et al. (2006) J Virol 80: 11776-11790). The cells were then lysed with Britelite reagent (Perkin-Elmer) and the relative light units in the cell lysates were determined on a luminometer microplate reader (Veritas, Turner Biosystems). The 50% inhibitory dose (IC50) was defined as the sample concentration at which relative luminescence units were reduced 50% compared to virus control wells.\nThe neutralizing activity of the mAbs was measured using 20 pseudotyped HIV-1 primary isolate envs characterized by different sensitivity to neutralization (Li M, et al. (2005) J Virol 79: 10108-10125; Li M, et al. (2006) J Virol 80: 11776-11790). The mAbs were tested at a fixed concentration (100 μg/ml) in the luciferase based neutralization assay using HOS-CD4.R5 as target cells."}, "HIV-1 isolates": {"test_system": "HIV-1 isolates", "experiment": "Neutralization of HIV-1 isolates (TZMbl-based or HOS-based assay, not specified)", "format": "cell-based", "from_the_text": "FIG. 5. Epitope mapping of V3-specific mAbs by linear and circular peptide scanning. (A) Eight gp120-specific mAbs were mapped with linear and cyclic peptides to the V3 region. Shown is the HIV-1 isolate used for the mapping, the minimal epitope, the binding breadth expressed as number of recombinant Env proteins out of the 16 tested, and the fraction of isolates neutralized in the HOS and TZMbl-based neutralization assays, respectively. (B) Alignment of the region corresponding to the epitope recognized by mAb HGN194 in 44 HIV-1 isolates. Co-receptor binding residues are bold. Highlighted in grey are the isolates neutralized by HGN194 either in the TZMbl-based or in the HOS-based assays. […]\nTo measure the neutralization activity of the isolated mAbs, luciferase-encoding virions pseudotyped with the desired HIV-1 Env proteins were used in a single-cycle infectivity assay, as previously described (Gorny M K, et al. (2002) J Virol 76: 9035-9045). […] The cells were then lysed with Britelite reagent (Perkin-Elmer) and the relative light units in the cell lysates were determined on a luminometer microplate reader (Veritas, Turner Biosystems). […]"}}, "note": "Where two headings read alike, the source gives them in different places.", "data": [{"molecule": "B1", "values": [{"measurement": "Percentage of HIV-1 isolates neutralized", "setting": "[1]; All (92)", "value": 21, "unit": "%"}, {"measurement": "Neutralization TZM-bl (number of isolates neutralized)", "setting": "[1]; TZM-bl based assay, isolates neutralized/isolates tested", "value": "19/92"}, {"measurement": "Percentage of HIV-1 isolates neutralized", "setting": "[1]; Tier 1 (10)", "value": 100, "unit": "%"}, {"measurement": "Percentage of HIV-1 isolates neutralized", "setting": "[1]; Tier 1 + Tier 2, Clade A (8)", "value": 38, "unit": "%"}, {"measurement": "Percentage of HIV-1 isolates neutralized", "setting": "[1]; Tier 1 + Tier 2, Clade AD (1)", "value": 0, "unit": "%"}, {"measurement": "Percentage of HIV-1 isolates neutralized", "setting": "[1]; Tier 1 + Tier 2, Clade AG (16)", "value": 0, "unit": "%"}, {"measurement": "Percentage of HIV-1 isolates neutralized", "setting": "[1]; Tier 1 + Tier 2, Clade B (29)", "value": 24, "unit": "%"}, {"measurement": "Percentage of HIV-1 isolates neutralized", "setting": "[1]; Tier 1 + Tier 2, Clade BC (11)", "value": 0, "unit": "%"}, {"measurement": "Percentage of HIV-1 isolates neutralized", "setting": "[1]; Tier 1 + Tier 2, Clade C (26)", "value": 23, "unit": "%"}, {"measurement": "Percentage of HIV-1 isolates neutralized", "setting": "[1]; Tier 1 + Tier 2, Clade G (1)", "value": 0, "unit": "%"}, {"measurement": "Percentage of HIV-1 isolates neutralized", "setting": "[1]; Tier 2 (82)", "value": 11, "unit": "%"}, {"measurement": "Percentage of HIV-1 isolates neutralized", "setting": "[1]; Tier 2, Clade A (5)", "value": 20, "unit": "%"}, {"measurement": "Percentage of HIV-1 isolates neutralized", "setting": "[1]; Tier 2, Clade AD (1)", "value": 0, "unit": "%"}, {"measurement": "Percentage of HIV-1 isolates neutralized", "setting": "[1]; Tier 2, Clade AG (16)", "value": 0, "unit": "%"}, {"measurement": "Percentage of HIV-1 isolates neutralized", "setting": "[1]; Tier 2, Clade B (24)", "value": 8, "unit": "%"}, {"measurement": "Percentage of HIV-1 isolates neutralized", "setting": "[1]; Tier 2, Clade BC (11)", "value": 0, "unit": "%"}, {"measurement": "Percentage of HIV-1 isolates neutralized", "setting": "[1]; Tier 2, Clade C (24)", "value": 17, "unit": "%"}, {"measurement": "Percentage of HIV-1 isolates neutralized", "setting": "[1]; Tier 2, Clade G (1)", "value": 0, "unit": "%"}, {"measurement": "pseudoviruses neutralized in the TZM-bl based assay", "setting": "[1]; neutralized/tested", "value": "19/92"}, {"measurement": "Cross-competition with: 2G12", "setting": "gp120; inhibition of biotinylated mAb 2G12 binding to immobilized gp120", "value": "− (−, <50% inhibition)"}, {"measurement": "Cross-competition with: HGA9", "setting": "gp120; inhibition of biotinylated mAb HGA9 binding to immobilized gp120", "value": "+ (+,90-100% inhibition)"}, {"measurement": "Cross-competition with: HJ16", "setting": "gp120; inhibition of biotinylated mAb HJ16 binding to immobilized gp120", "value": "− (−, <50% inhibition)"}, {"measurement": "Cross-competition with: HR10", "setting": "gp120; inhibition of biotinylated mAb HR10 binding to immobilized gp120", "value": "+ (+,90-100% inhibition)"}, {"measurement": "Cross-competition with: b12", "setting": "gp120; inhibition of biotinylated mAb b12 binding to immobilized gp120", "value": "− (−, <50% inhibition)"}, {"measurement": "Cross-competition with: sCD4", "setting": "gp120 binding to sCD4", "value": "− (−, <50% inhibition)"}, {"measurement": "efficacy in macaques", "setting": "[2]", "value": "complete protection"}, {"measurement": "Neutralization HOS (number of isolates neutralized)", "setting": "[3]; HOS-based assay, isolates neutralized/isolates tested", "value": "11/20"}, {"measurement": "pseudoviruses neutralized out of the 20 pseudoviruses", "setting": "[3]; mAb at fixed concentration 100 μg/ml", "value": 11}, {"measurement": "pseudoviruses neutralized in the HOS-based assay", "setting": "[3]; neutralized/tested", "value": "11/20"}, {"measurement": "IC50", "setting": "HIV-1 isolates; isolate 93MW965.26", "value": "< 0.02", "unit": "µg/mL"}, {"measurement": "neutralization", "setting": "HIV-1 isolates; isolates Du422.1, ZM197M.PB7 and Du172.17", "value": "not neutralized"}]}]}
